Data: patent US20200030425
Read-outs that look alike come from different tables or passages of the source.

Experiments:
hCD32a-H131 (human) [1] = biological target: hCD32a-H131 (human) (UniProt P12318)
hCD16a-F158 (human) [2] = biological target: hCD16a-F158 (human) (UniProt P08637)
hCD32a-H131 (human) [3] = biological target: hCD32a-H131 (human) (UniProt P12318); remark: listed apart in the source
hCD16a-F158 (human) [4] = biological target: hCD16a-F158 (human) (UniProt P08637); remark: listed apart in the source

Sequence of hCD16a-F158 (human) (P08637 17-208): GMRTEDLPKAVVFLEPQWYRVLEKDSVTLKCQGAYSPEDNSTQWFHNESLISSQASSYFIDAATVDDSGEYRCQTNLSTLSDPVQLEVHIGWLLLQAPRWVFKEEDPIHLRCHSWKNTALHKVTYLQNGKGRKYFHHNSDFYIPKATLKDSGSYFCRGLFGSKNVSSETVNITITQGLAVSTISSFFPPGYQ
Sequence of hCD32a-H131 (human) (P12318 34-217): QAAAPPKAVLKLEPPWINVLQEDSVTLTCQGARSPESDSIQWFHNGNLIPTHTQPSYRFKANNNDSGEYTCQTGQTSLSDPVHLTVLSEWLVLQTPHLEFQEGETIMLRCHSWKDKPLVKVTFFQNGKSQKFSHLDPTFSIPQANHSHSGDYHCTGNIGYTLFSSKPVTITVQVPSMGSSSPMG

IgG1f
Kd (hCD32a-H131 (human) [1]): 530 µM | Kd (hCD16a-F158 (human) [2]): 200 µM

IgG1f-S267E
Kd (hCD32a-H131 (human) [3]): 650 µM | Kd (hCD16a-F158 (human) [4]): > 5000 µM
